Laboratory results as given in article PMC11601465.

Experiments:
[1] = target: Nyl50; test: AUC
[2] = target: Nyl50; test: AUC; remark: listed apart in the source
[3] = target: Nyl50; test: SEC

In the case of Nyl50 (enzyme), the stoichiometry N [1] is reported as 4, the stoichiometry N [2] is reported as 2 and the stoichiometry N [3] is reported as 2.
